Test results published in patent US20150010525A1, “Catalytic Tagging System to Study Macro-Molecular Interactions Using Engineered Ubiquitin Ligase and Ubiquitin-Like Proteins to Facilitate Substrate Identification” (THE REGENTS OF THE UNIVERSITY OF CALIFORNIA, priority 2012, published 2015).
Where a SMILES comes first, the peptide text is derived from it. The star is where a group is joined. Cbz = O=C(OCc1ccccc1)*

Experiments:
[1] = test system: proteasome; assay: PGAM5(Δ24) ubiquitination in HeLa cells; assay type: cell-based; conditions: HA-Ubiquitin and PGAM5(Δ24)-Myc
Experimental: HeLa cells are transiently co-transfected with HA-Ubiquitin, PGAM5(Δ24)-Myc, with or without XIAP or the treatment of MG132. Ubiquitination of PGAM5(Δ24)-Myc are addressed by immunoprecipitating with Myc antibody then blotting with HA antibody.
HeLa cells were transfected with Lipofectamine 2000 (Invitrogen). Cells were lysed either in M-PER mammalian protein extraction buffer (Thermo) or NP40 buffer (50 mM HEPES pH 7.4, 150 mM NaCl, 1% NP40), supplemented with protease inhibitor cocktail (Thermo). 10% SDS-polyacrylamide gel (PAGE) combined with MOPS running buffer was used to separate full length PGAM5 from the truncated form for immuno-blotting analysis. 4-12% SDS-PAGE gels were generally used for all other analysis. Immuno-precipitation with anti-Myc tag antibody (cell signaling) was performed with a standard procedure using manufacture's instructions.

[2] = test system: Jurkat and HeLa cells; assay: Cytosolic PGAM5(Δ24) immunoblot in apoptotic cells; assay type: cell-based; conditions: 1 μM STS, 4 hours
[3] = target: T1, cIAP1 (Homo sapiens, UniProt Q13490); assay: Co-immunoprecipitation in HEK293 cells; assay type: cell-based; conditions: Flag-cIAP1 co-transfection, anti-Myc IP
T1 construct: expressed in transfected cells; host or cells: HEK293
T1 sequence (Q13490 whole entry): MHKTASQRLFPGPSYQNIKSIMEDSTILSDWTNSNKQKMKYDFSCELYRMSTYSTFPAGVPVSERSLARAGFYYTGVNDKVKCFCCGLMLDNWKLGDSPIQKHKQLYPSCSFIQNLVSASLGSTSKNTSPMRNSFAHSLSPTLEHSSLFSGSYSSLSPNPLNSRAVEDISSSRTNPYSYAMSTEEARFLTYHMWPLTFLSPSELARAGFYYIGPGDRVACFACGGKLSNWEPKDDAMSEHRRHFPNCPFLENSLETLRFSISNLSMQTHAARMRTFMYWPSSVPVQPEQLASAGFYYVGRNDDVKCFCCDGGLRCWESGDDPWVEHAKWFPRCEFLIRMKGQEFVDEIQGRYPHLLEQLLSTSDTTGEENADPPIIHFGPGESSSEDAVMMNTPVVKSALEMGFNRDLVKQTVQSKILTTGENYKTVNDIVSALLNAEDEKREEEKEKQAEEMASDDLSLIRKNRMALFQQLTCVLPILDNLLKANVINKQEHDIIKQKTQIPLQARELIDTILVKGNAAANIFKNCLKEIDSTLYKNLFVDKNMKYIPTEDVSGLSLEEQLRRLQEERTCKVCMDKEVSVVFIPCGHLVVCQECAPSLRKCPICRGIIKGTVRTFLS
Experimental: FIG. 13 illustrates functional studies of PGAM5 in cells. (A) PGAM5(Δ24) binds XIAP and cIAP1 in vivo. On the left, HEK293 cells were cotransfected with Flag-cIAP1 and PGAM5(FL)-Myc or PGAM5(Δ24)-Myc. Total cell lysates were analyzed by immune-blotting with anti-Flag and anti-Myc antibodies (bottom two panels). Anti-Myc immune-precipitates (IP) were subjected to immunoblot analysis using anti-Myc and anti-Flag antibodies (top two panels). On the right, PGAM5(Δ24)-Myc was transiently expressed in HEK293 cells. 36 hours after transfection, cells were lysed and subjected for Immuno-precipitation with either anti-Myc antibody or an isotype control antibody (mouse IgG). Proteins in the whole cell lysate (bottom three panels) and proteins that bind to the antibody conjugated sepharose beads (top three panels) were assayed with immunoblotting. An asterisk indicates the position of the immunoglobulin heavy chain. (B) XIAP and cIAP1 stimulate PGAM5(Δ24) ubiquitination in vivo. […] 24 hours after transfection, cell viability was measured by Annexin V staining. […] Error bars represent SEM calculated from triplicate experiments. […] Cell viability is then immediately measured by CellTiter-Glo luminescent assay. […] PGAM5 levels are analyzed with anti-Myc immune-blotting before STS treatment. Error bars represent SEM calculated from triplicate samples. […]

[4] = target: T2, GST-XIAP (Homo sapiens, UniProt P98170); assay: In vitro GST pull down; assay type: binding; conditions: recombinant proteins
T2 construct: made in house
T2 sequence (P98170 whole entry): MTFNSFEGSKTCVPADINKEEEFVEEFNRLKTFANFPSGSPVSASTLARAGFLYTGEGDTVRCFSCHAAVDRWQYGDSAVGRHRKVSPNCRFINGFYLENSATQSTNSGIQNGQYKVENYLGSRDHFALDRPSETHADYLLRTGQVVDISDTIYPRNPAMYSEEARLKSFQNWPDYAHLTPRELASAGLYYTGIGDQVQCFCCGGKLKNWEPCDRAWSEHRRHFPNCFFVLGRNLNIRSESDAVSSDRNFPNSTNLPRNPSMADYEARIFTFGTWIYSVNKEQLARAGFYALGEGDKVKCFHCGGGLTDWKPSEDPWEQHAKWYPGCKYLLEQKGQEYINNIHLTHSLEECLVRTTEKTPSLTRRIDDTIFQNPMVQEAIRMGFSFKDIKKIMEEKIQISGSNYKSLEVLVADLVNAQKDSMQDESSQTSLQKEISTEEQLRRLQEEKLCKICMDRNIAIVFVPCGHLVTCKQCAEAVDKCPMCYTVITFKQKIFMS
Description: (§1) FIG. 12 illustrates the identification of the proteolytic form of PGAM5 as an XIAP and cIAP1 substrate in vitro. […] Overall, 15 unique peptides from PGAM5 were recovered and account for 43% of the entire protein sequence. (B) An example of LC-MS/MS spectrum from endogenous PGAM5 N-terminal peptide after subtiligase labeling and positive enrichment. A non-natural amino acid, 2-aminobutyric acid (Abu), is a designed tag showing characteristic labeling by subtiligase. (C) PGAM5 is cleaved into a truncated form in cells. Jurkat cells were transiently transfected with C-terminal Myc tagged full length PGAM5 or PGAM5 (Δ2-24). […] (D) N-terminal amino acid sequence alignment of PGAM5(Δ24) and other known evolutionarily conserved IBM sequences. Reaper, Hid, and Grim are Drosophila proteins that bind DIAP1, the Drosophila IAP. Amino acids are colored according to their chemical properties. (E) XIAP binds PGAM5(Δ24) but not the full length PGAM5. Recombinant GST fused XIAP, PGAM5(FL), and PGAM5(Δ24) were used for in vitro GST pull down experiments. (F) PGAM5(Δ24) binds to XIAP and cIAP1 independent of the RING domain. […] The resins were washed and proteins were eluted and analyzed with SDSPAGE and coomassie blue staining. […] The ubiquitination assay was performed in vitro and PGAM5 is detected with an anti-His antibody.

[5] = target: XIAP (Homo sapiens, UniProt P98170); assay: In vitro PGAM5 ubiquitination assay with XIAP; assay type: biochemical; conditions: 50 nM UBE1, 200 nM UbcH5b, 700 nM XIAP, 1.5 μM PGAM5-His6
XIAP, sequence (P98170 whole entry): as above
Description: as §1, with “antibody. […]” for “antibody.”

[6] = target: T1, cIAP1; assay: In vitro PGAM5 ubiquitination assay with cIAP1; assay type: biochemical; conditions: 50 nM UBE1, 200 nM UbcH5b, 700 nM cIAP1, 1.5 μM PGAM5-His6
Description: as §1, with “antibody. […]” for “antibody.”

**Q.** With `CC(C)C[C@@H](C=O)NC(=O)[C@H](CC(C)C)NC(=O)[C@H](CC(C)C)NC(=O)OCc1ccccc1` [MG132] (Cbz-Leu-Leu-Leu-aldehyde) as the molecule, how does the “level of ubiquitination of PGAM5(Δ24)” value [1] read?
**A.** The value was “increased”.

**Q.** With `CN[C@@H]1C[C@H]2O[C@@](C)([C@@H]1OC)n1c3ccccc3c3c4c(c5c6ccccc6n2c5c31)C(=O)NC4` [STS, staurosporin] as the molecule, how does the “cytosolic level of PGAM5(Δ24)” value [2] read?
**A.** Its value is “significant increase in PGAM5(Δ24)”.

B1: PGAM5(Δ24): cleaved form of PGAM5 lacking the first 24 residues, neo-IBM sequence starting with Ala25 (protein, UniProt Q96HS1 25-289, looked up, fragment)
chain: AVAVGKPRAGGDAEPRPAEPPAWAGGARPGPGVWDPNWDRREPLSLINVRKRNVESGEEELASKLDHYKAKATRHIFLIRHSQYHVDGSLEKDRTLTPLGREQAELTGLRLASLGLKFNKIVHSSMTRAIETTDIISRHLPGVCKVSTDLLREGAPIEPDPPVSHWKPEAVQYYEDGARIEAAFRNYIHRADARQEEDSYEIFICHANVIRYIVCRALQFPPEGWLRLSLNNGSITHLVIRPNGRVALRTLGDTGFMPPDKITRS
**Q.** For B1, which “binding to cellular cIAP1” value [3] is on record?
**A.** The value was “specifically binds”.

**Q.** What about the “binding to XIAP (pull down)” value [4] of the same molecule?
**A.** Its value is “pulled down”.

**Q.** And the “ubiquitination by XIAP” value [5]?
**A.** Its value is “ubiquitinates”.

**Q.** And the “ubiquitination by cIAP1” value [6]?
**A.** The value was “ubiquitinates”.
